Assay results taken from US20110214193A1, “BIOMARKER FOR MICRODOMAIN DISEASE” (SUMITOMO CHEMICAL COMPANY, LIMITED, priority 2008, published 2011).

Legend:
Assay type in all cases: cell-based
[1] = system: differentiated mouse adipocyte cell line 3T3-L1; assay: Enhancing action by anti-GM2A antibody and ligand on glucose uptake (2-deoxyglucose incorporation)
Protocol: (§1) Mouse adipocyte cell line 3T3-L1 was purchased from Health Science Research Resources Bank. Cells of the purchased mouse adipocyte cell line […] were cultured in a D-MEM containing 10% fetal bovine serum (hereinafter referred to as D-MEM (10)) at 37° C. under an atmosphere of 5% CO2. The cultured cells were plated on a 6-well plate. Two days after becoming confluent, the culture solution was exchanged for a pre-differentiation culture solution (D-MEM (10) containing 1 μg/ml insulin, 0.5 mM 3-isobutyl-1-methylxanthine, and 1 μM dexamethasone), and the culture was further cultured for another 4 days. […] Here, the protein concentration of the specimen was measured using BCA Protein Assay Reagent (catalogue No. 23228, Pierce) using bovine serum albumin as a standard protein.
The amount of 2-deoxyglucose in the specimen was quantitatively determined according to the following method. To a plate for fluorescence measurement, were added 100 μl of an assay buffer (50 mM triethanolamine (pH 8.1), 50 mM KCl, 0.5 mM MgCl2, 0.02% bovine serum albumin, 670 μM ATP, 0.12 μM NADP^+, 25 μM resazurin, 5.5 units/ml hexokinase, 16 units/ml G6PDH, 1 units/ml diaphorase) and 100 μl of the specimen. After keeping the obtained mixture at 37° C. for 90 minutes, the fluorescence intensity of the obtained mixture was measured (excitation wavelength: 530 nm, detection wavelength: 595 nm). […]

[2] = system: differentiated mouse skeletal muscle cell line C2C12; assay: Inhibition by GM2A protein of insulin intracellular signaling (Akt phosphorylation, Western blot); conditions: for Phosphorylated Akt/Akt: Insulin + (1 μg/ml, 10 minutes), 24 hours, no insulin = 1.0, insulin alone = 2.1
Protocol: (§2) Mouse skeletal muscle cell line C2C12 (CRL-1772) and rat pheochromocytoma cell line PC12 (CRl-1721) were purchased from ATCC. Cells of the both cell lines were cultured in a D-MEM medium containing 10% inactivated fetal bovine serum (catalogue No. 14247-15, NACALAI TESQUE, INC.) at 37° C. under an atmosphere of 5% CO2. Cells of differentiated mouse skeletal muscle cell line C2C12 were prepared by exchanging the medium for a D-MEM containing 2% inactivated equine serum and culturing the mixture for […].
(§3) Human GM2A protein was prepared as follows. First, a cDNA was prepared from human lung cancer cell line HARA-B (catalogue No. JCRB1080.1, Health Science Research Resources Bank), using oligo(dT). Using the prepared cDNA, a PCR fragment containing the full length of human GM2A gene was obtained. The obtained PCR fragment was inserted into pET24a vector (catalogue No. 69749-3, Novagen), whereby human GM2A/pET24a plasmid was prepared. Next, after human GM2A/pET24a was added to Escherichia coli BL21 (DE3) pLysS (catalogue No. 69451-4, Novagen) to transform the Escherichia coli, the obtained Escherichia coli was cultured on shaking in an LB medium containing 50 μg/ml kanamycin at 37° C. until OD600=about 0.5. Then, after Isopropyl-β-thiogalactopyranoside (catalogue No. 9030, Takara Bio Inc.) was added to the obtained culture so that the final concentration could be 0.5 mM, the culture was further cultured on shaking at 18° C. for 3 hours. Bacterial cells were collected by centrifuging the obtained culture, and the collected bacterial cells were sonicated. Then, the obtained homogenate was centrifuged at 11,000 rpm for 30 minutes. After Ni-NTA agarose (catalogue No. 1018244, Qiagen) was added to the obtained supernatant and left at 4° C. for 2 hours, the obtained left object was washed 5 times. From the obtained washed object, an elution fraction of a protein was obtained by elution of a protein with 250 mM imidazole. The obtained elution fraction was purified by anion exchange chromatography HiTrapQ HP, whereby human GM2A protein was prepared. […]

[3] = system: undifferentiated mouse skeletal muscle cell line C2C12; assay: Inhibition by GM2A protein of leptin intracellular signaling (AMPK alpha phosphorylation, Western blot); conditions: for Phosphorylated AMPK alpha/AMPK alpha: Leptin + (0.1 μg/ml, 30 minutes), 24 hours, no leptin = 1.0, leptin alone = 1.9
Protocol: as §2, §3

[4] = system: rat pheochromocytoma cell line PC12; assay: Inhibition by GM2A protein of NGF intracellular signaling (Akt phosphorylation, Western blot); conditions: for Phosphorylated Akt/Akt: NGF + (0.1 μg/ml, 10 minutes), 24 hours, no NGF = 1.0, NGF alone = 1.8
Protocol: as §2, §3

[5] = system: mouse adipocyte cell line 3T3-L1; assay: Inhibitory action by GM2A protein on glucose uptake (2-deoxyglucose incorporation); conditions: for Amount of 2-Deoxyglucose: relative value per amount of protein, Insulin +, no insulin = 100, insulin alone = 215
Protocol: as §1, with “days. Next, after the pre-differentiation culture solution was exchanged for a post-differentiation culture solution (D-MEM (10) containing 1 insulin) and the culture was cultured for 3 days, the culture solution was exchanged for a D-MEM (10) containing mouse GM2A protein, and the culture was further cultured for another day.” for “days.”
The amount of 2-deoxyglucose in the specimen was quantitatively determined according to the following method. To a plate for fluorescence measurement, were added 100 μl of an assay buffer (50 mM triethanolamine (pH 8.1), 50 mM KCl, 0.5 mM MgCl2, 0.02% bovine serum albumin, 670 μM ATP, 0.12 μM NADP^+, 25 μM resazurin, 5.5 units/ml hexokinase, 16 units/ml G6PDH, 1 units/ml diaphorase) and 100 μl of the specimen. After keeping the obtained mixture at 37° C. for 90 minutes, the fluorescence intensity of the obtained mixture was measured (excitation wavelength: 530 nm, detection wavelength: 595 nm). A calibration curve was created using 2-deoxyglucose of 500 μM, 250 μM, 125 μM and 0 μM (purified water) as a standard, and quantitative determination was carried out on the basis of the calibration curve. The amount of 2-deoxyglucose incorporated into a cell per the amount of protein of the specimen was calculated as a relative value.

[6] = concentration-dependent, 2 and 4 μg/ml

ganglioside GM2 was tested, and the “intracellular incorporation of 2-deoxyglucose” value [1] was “enhanced” and the “Amount of 2-Deoxyglucose” value ([1]; relative value, 1 μM, 1 day, DMSO = 100) was 120.

B1: GM2AP: Human GM2A protein expressed in Escherichia coli from human GM2A/pET24a, purified by Ni-NTA agarose and anion exchange chromatography (protein)
chain: HLKKPSQLSSFSWDNCDEGKDPAVIRSLTLEPDPIIVPGNVTLSVMGSTSVPLSSPLKVDLVLEKEVAGLWIKIPCTDYIGSCTFEHFCDVLDMLIPTGEPCPEPLRTYGLPCHCPFKEGTYSLPKSEFVVPDLELPSWLTTGNYRIESVLSSSGKRLGCIKIAASLKGI
B1 was tested, and the “Phosphorylated Akt/Akt” value ([2]; GM2AP 2 μg/ml) was 1.8, the “Phosphorylated Akt/Akt” value ([2]; GM2AP 4 μg/ml) was 1.2 and the “Phosphorylated AMPK alpha/AMPK alpha” value ([3]; GM2AP 2 μg/ml) was 1.0. For the same molecule, the “Phosphorylated AMPK alpha/AMPK alpha” value ([3]; GM2AP 4 μg/ml) was 0.9, the “Phosphorylated Akt/Akt” value ([4]; GM2AP 2 μg/ml) was 1.5 and the “Phosphorylated Akt/Akt” value ([4]; GM2AP 4 μg/ml) was 1.4.

B2: GM2A Protein: mouse GM2A protein added to the culture solution of 3T3-L1 cells in Example 8 (protein)
chain: ARLVPKRLSQLGGFSWDNCDEGKDPAVIKSLTIQPDPIVVPGDVVVSLEGKTSVPLTAPQKVELTVEKEVAGFWVKIPCVEQLGSCSYENICDLIDEYIPPGESCPEPLHTYGLPCHCPFKEGTYSLPTSNFTVPDLELPSWLSTGNYRIQSILSSGGKRLGCIKIAASLKGR
In the case of B2, the “intracellular signaling of insulin” value [2, 6] is reported as “inhibited”, the “intracellular signaling of leptin” value [3, 6] is reported as “inhibited” and the “intracellular signaling of NGF” value [4, 6] is reported as “inhibited”. The “enhancing action by insulin on intracellular incorporation of 2-deoxyglucose” value ([5]; concentration-dependent, 2 and 10 μg/ml) was “inhibited”, the “Amount of 2-Deoxyglucose” value ([5]; GM2A Protein 2 μg/ml) was 184 and the “Amount of 2-Deoxyglucose” value ([5]; GM2A Protein 10 μg/ml) was 156.
